No end group written: not given here.
Columns and labels:
[1] = target: human converting enzyme (human ACE) (human, UniProt P12821 30-1306, limits assumed); test: cell-based or functional assay
[2] = target: T1, rat lung ACE (angiotensin I converting enzyme in ground rat lung material) (rat, UniProt P47820 36-1313, limits assumed); test: cell-based or functional assay
T1 sequence (looked up): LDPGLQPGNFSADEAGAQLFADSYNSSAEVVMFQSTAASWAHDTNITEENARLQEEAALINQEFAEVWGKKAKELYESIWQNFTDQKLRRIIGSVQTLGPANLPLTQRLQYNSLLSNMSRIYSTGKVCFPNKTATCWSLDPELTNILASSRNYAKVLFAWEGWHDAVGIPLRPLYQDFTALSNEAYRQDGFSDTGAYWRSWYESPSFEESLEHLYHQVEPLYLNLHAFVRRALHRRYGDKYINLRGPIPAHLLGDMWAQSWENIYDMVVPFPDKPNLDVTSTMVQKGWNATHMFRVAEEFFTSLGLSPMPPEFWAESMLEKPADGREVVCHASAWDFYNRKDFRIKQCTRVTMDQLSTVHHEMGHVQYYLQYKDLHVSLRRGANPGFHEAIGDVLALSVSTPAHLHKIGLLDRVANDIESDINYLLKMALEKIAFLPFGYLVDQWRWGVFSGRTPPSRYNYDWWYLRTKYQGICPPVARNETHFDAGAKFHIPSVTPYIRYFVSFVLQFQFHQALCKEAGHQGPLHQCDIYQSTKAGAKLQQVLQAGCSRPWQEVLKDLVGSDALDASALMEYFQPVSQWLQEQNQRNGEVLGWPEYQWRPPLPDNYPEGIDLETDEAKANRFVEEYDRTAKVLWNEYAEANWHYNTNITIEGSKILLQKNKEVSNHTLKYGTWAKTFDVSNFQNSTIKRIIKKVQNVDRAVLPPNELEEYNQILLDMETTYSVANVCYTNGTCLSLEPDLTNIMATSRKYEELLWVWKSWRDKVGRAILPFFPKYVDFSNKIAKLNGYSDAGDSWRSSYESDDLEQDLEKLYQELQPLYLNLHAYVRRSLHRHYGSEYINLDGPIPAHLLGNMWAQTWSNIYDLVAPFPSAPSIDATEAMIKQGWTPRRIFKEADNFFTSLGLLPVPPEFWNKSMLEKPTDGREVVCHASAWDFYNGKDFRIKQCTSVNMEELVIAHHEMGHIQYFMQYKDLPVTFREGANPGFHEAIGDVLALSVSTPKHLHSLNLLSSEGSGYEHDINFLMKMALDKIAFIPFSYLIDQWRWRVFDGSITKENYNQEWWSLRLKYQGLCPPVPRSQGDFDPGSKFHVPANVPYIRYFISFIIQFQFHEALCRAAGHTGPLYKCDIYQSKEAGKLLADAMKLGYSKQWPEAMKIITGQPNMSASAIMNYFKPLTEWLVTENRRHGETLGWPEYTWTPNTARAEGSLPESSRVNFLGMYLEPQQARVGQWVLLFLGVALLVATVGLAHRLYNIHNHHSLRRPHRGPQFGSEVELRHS

| Binder | in vitro degradation: % of peptide assayed relative to the control (enzyme immunoassay), T10 min, no captopril [1] [%] | in vitro degradation: % of peptide assayed relative to the control (enzyme immunoassay), T10 min, with captopril 10 uM [1] [%] | in vitro degradation: % of peptide assayed relative to the control (enzyme immunoassay), T30 min, no captopril [1] [%] | in vitro degradation: % of peptide assayed relative to the control (enzyme immunoassay), T30 min, with captopril 10 uM [1] [%] | in vitro degradation: % of peptide assayed relative to the control (enzyme immunoassay), T60 min, no captopril [1] [%] | in vitro degradation: % of peptide assayed relative to the control (enzyme immunoassay), T60 min, with captopril 10 uM [1] [%] | in vitro degradation: % of peptide assayed relative to the control (enzyme immunoassay), T120 min, no captopril [1] [%] | in vitro degradation: % of peptide assayed relative to the control (enzyme immunoassay), T120 min, with captopril 10 uM [1] [%] | in vitro degradation: % of peptide assayed relative to the control (enzyme immunoassay), T240 min, no captopril [1] [%] | in vitro degradation: % of peptide assayed relative to the control (enzyme immunoassay), T240 min, with captopril 10 uM [1] [%] | in vitro degradation: % of peptide assayed relative to the control (enzyme immunoassay), T30 min, no captopril [2] [%] | in vitro degradation: % of peptide assayed relative to the control (enzyme immunoassay), T30 min, with captopril 10 uM [2] [%] | in vitro degradation: % of peptide assayed relative to the control (enzyme immunoassay), T60 min, no captopril [2] [%] | in vitro degradation: % of peptide assayed relative to the control (enzyme immunoassay), T60 min, with captopril 10 uM [2] [%] | in vitro degradation: % of peptide assayed relative to the control (enzyme immunoassay), T120 min, no captopril [2] [%] | in vitro degradation: % of peptide assayed relative to the control (enzyme immunoassay), T120 min, with captopril 10 uM [2] [%] | in vitro degradation: % of peptide assayed relative to the control (enzyme immunoassay), T240 min, no captopril [2] [%] | in vitro degradation: % of peptide assayed relative to the control (enzyme immunoassay), T240 min, with captopril 10 uM [2] [%] | in vitro degradation: % of peptide assayed relative to the control (enzyme immunoassay), T1440 min, no captopril [1] [%] | in vitro degradation: % of peptide assayed relative to the control (enzyme immunoassay), T1440 min, with captopril 10 uM [1] [%] |
| --- | --- | --- | --- | --- | --- | --- | --- | --- | --- | --- | --- | --- | --- | --- | --- | --- | --- | --- | --- | --- |
| Ac-SDKP [N-acetyl-Ser-Asp-Lys-Pro (AcSDKP)] | 82 | 90 | 75 | 100 | 50 | 85 | 25 | 85 | 7 | 100 | 28 | 129 | 9 | 111 | 5 | 75 | 5 | 89 |  |  |
| Ac-SDKP-NH2 [N-acetyl-Ser-Asp-Lys-Pro-NH2 (AcSDKP-NH2)] | 79 | 90 | 100 | 162 | 116 | 78 | 116 | 95 | 107 | 104 | 100 | 125 | 65 | 65 | 95 | 109 | 126 | 136 | 86 | 117 |

From US7601333B2, “Use of a tetrapeptide AcSDKP (SEQ ID No. 1) analog resistant to the angiotensin I converting enzyme for measuring glomerular filtration rate in a human or an animal and kit containing same” (Assistance Publique-Hopitaux de Paris, priority 2003, dated 2009)
